Results: the supplement of paper PMC9112550, “Optimization of the antimicrobial peptide Bac7 by deep mutational scanning” (BMC Biology, 2022)

Tested on: Escherichia coli TOP10
Experiment: shrunken log2 fold change of peptide-encoding DNA abundance (4.5 h post-induction vs induction); higher = less antimicrobial activity (less host growth inhibition)
Conditions: time post-induction: 4.5 h; library: site-saturation at positions 5, 18, 19, 20
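Note: peptides expressed intracellularly from a pBAD plasmid library in pooled LB shake-flask culture, induced with 0.3% L-arabinose, DNA abundance read by NGS, three biological replicates, DESeq2 with apeglm shrinkage.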

Sequence	shrunken log2 fold change
RRIRTRPPRLPRPRPRPAAPPRP	0.275
RRIRTRPPRLPRPRPRPAASPRP	0.169
RRIRTRPPRLPRPRPRPACKPRP	0.172
RRIRTRPPRLPRPRPRPAESPRP	0.0351
RRIRTRPPRLPRPRPRPAETPRP	0.139
RRIRTRPPRLPRPRPRPAFRPRP	-0.125
RRIRTRPPRLPRPRPRPAGTPRP	0.0902
RRIRTRPPRLPRPRPRPAHQPRP	3.43
RRIRTRPPRLPRPRPRPAKGPRP	0.0671
RRIRTRPPRLPRPRPRPAKRPRP	0.0872
RRIRTRPPRLPRPRPRPALMPRP	0.165
RRIRTRPPRLPRPRPRPALSPRP	-0.0737
RRIRTRPPRLPRPRPRPAMGPRP	0.391
RRIRTRPPRLPRPRPRPAMLPRP	-0.0605
RRIRTRPPRLPRPRPRPAMSPRP	0.00971
RRIRTRPPRLPRPRPRPANVPRP	-0.0276
RRIRTRPPRLPRPRPRPAPWPRP	0.254
RRIRTRPPRLPRPRPRPAQTPRP	0.712
RRIRTRPPRLPRPRPRPARKPRP	0.179
RRIRTRPPRLPRPRPRPARVPRP	0.195
RRIRTRPPRLPRPRPRPATYPRP	-0.169
RRIRTRPPRLPRPRPRPAWDPRP	0.454
RRIRTRPPRLPRPRPRPAYEPRP	0.164
RRIRTRPPRLPRPRPRPAYHPRP	-0.0827
RRIRTRPPRLPRPRPRPCATPRP	-0.0683

Sequence	shrunken log2 fold change
RRIRTRPPRLPRPRPRPCAVPRP	-0.262
RRIRTRPPRLPRPRPRPCCVPRP	-0.363
RRIRTRPPRLPRPRPRPCCYPRP	-0.43
RRIRTRPPRLPRPRPRPCDWPRP	-0.0538
RRIRTRPPRLPRPRPRPCEHPRP	0.00673
RRIRTRPPRLPRPRPRPCETPRP	0.0184
RRIRTRPPRLPRPRPRPCFPPRP	-0.141
RRIRTRPPRLPRPRPRPCFRPRP	-0.0887
RRIRTRPPRLPRPRPRPCGMPRP	-0.0074
RRIRTRPPRLPRPRPRPCHLPRP	0.0039
RRIRTRPPRLPRPRPRPCHPPRP	-0.0634
RRIRTRPPRLPRPRPRPCHWPRP	-0.00233
RRIRTRPPRLPRPRPRPCLPPRP	-0.0953
RRIRTRPPRLPRPRPRPCLTPRP	-0.319
RRIRTRPPRLPRPRPRPCMMPRP	-0.52
RRIRTRPPRLPRPRPRPCNEPRP	-0.173
RRIRTRPPRLPRPRPRPCNFPRP	-1.39
RRIRTRPPRLPRPRPRPCPHPRP	-0.0429
RRIRTRPPRLPRPRPRPCPMPRP	0.00574
RRIRTRPPRLPRPRPRPCPNPRP	-0.000921
RRIRTRPPRLPRPRPRPCQIPRP	0.0623
RRIRTRPPRLPRPRPRPCQSPRP	0.183
RRIRTRPPRLPRPRPRPCRCPRP	-0.00986
RRIRTRPPRLPRPRPRPCSQPRP	-0.018
RRIRTRPPRLPRPRPRPCVWPRP	-0.000289

Sequence	shrunken log2 fold change
RRIRTRPPRLPRPRPRPCWDPRP	-0.192
RRIRTRPPRLPRPRPRPCWLPRP	-0.0724
RRIRTRPPRLPRPRPRPCWQPRP	0.0902
RRIRTRPPRLPRPRPRPCYCPRP	-0.76
RRIRTRPPRLPRPRPRPCYDPRP	-0.127
RRIRTRPPRLPRPRPRPDANPRP	-0.103
RRIRTRPPRLPRPRPRPDAPPRP	0.215
RRIRTRPPRLPRPRPRPDCVPRP	-0.128
RRIRTRPPRLPRPRPRPDDLPRP	0.0162
RRIRTRPPRLPRPRPRPDEDPRP	0.0169
RRIRTRPPRLPRPRPRPDERPRP	-0.146
RRIRTRPPRLPRPRPRPDFKPRP	-0.172
RRIRTRPPRLPRPRPRPDGAPRP	0.132
RRIRTRPPRLPRPRPRPDGFPRP	-0.0487
RRIRTRPPRLPRPRPRPDHQPRP	-0.0261
RRIRTRPPRLPRPRPRPDIEPRP	-0.117
RRIRTRPPRLPRPRPRPDIPPRP	-0.0961
RRIRTRPPRLPRPRPRPDIQPRP	-0.531
RRIRTRPPRLPRPRPRPDKDPRP	-0.0511
RRIRTRPPRLPRPRPRPDKPPRP	0.0877
RRIRTRPPRLPRPRPRPDLDPRP	0.145
RRIRTRPPRLPRPRPRPDLSPRP	0.057
RRIRTRPPRLPRPRPRPDLTPRP	0.129
RRIRTRPPRLPRPRPRPDLYPRP	0.0261
RRIRTRPPRLPRPRPRPDMTPRP	-0.0206

Sequence	shrunken log2 fold change
RRIRTRPPRLPRPRPRPDPCPRP	0.0297
RRIRTRPPRLPRPRPRPDPRPRP	0.0663
RRIRTRPPRLPRPRPRPDQGPRP	0.23
RRIRTRPPRLPRPRPRPDRRPRP	0.0647
RRIRTRPPRLPRPRPRPDSGPRP	-0.0764
RRIRTRPPRLPRPRPRPDSPPRP	-0.549
RRIRTRPPRLPRPRPRPDSYPRP	-0.0896
RRIRTRPPRLPRPRPRPDTSPRP	-0.324
RRIRTRPPRLPRPRPRPDVMPRP	-0.00136
RRIRTRPPRLPRPRPRPDVTPRP	-0.06
RRIRTRPPRLPRPRPRPDWAPRP	0.327
RRIRTRPPRLPRPRPRPDYVPRP	-0.0882
RRIRTRPPRLPRPRPRPEDLPRP	0.0657
RRIRTRPPRLPRPRPRPEELPRP	0.0343
RRIRTRPPRLPRPRPRPEERPRP	0.12
RRIRTRPPRLPRPRPRPEGFPRP	-0.041
RRIRTRPPRLPRPRPRPEGIPRP	0.0215
RRIRTRPPRLPRPRPRPEGNPRP	-0.311
RRIRTRPPRLPRPRPRPEHVPRP	0.0823
RRIRTRPPRLPRPRPRPEIKPRP	-0.0117
RRIRTRPPRLPRPRPRPEKFPRP	-0.376
RRIRTRPPRLPRPRPRPEKHPRP	0.0385
RRIRTRPPRLPRPRPRPEKPPRP	0.0634
RRIRTRPPRLPRPRPRPELCPRP	-0.101
RRIRTRPPRLPRPRPRPEPEPRP	0.323

Sequence	shrunken log2 fold change
RRIRTRPPRLPRPRPRPEQAPRP	0.173
RRIRTRPPRLPRPRPRPEQGPRP	0.196
RRIRTRPPRLPRPRPRPESDPRP	-0.0712
RRIRTRPPRLPRPRPRPEYAPRP	-0.00931
RRIRTRPPRLPRPRPRPEYDPRP	-0.0227
RRIRTRPPRLPRPRPRPEYEPRP	-0.0445
RRIRTRPPRLPRPRPRPFAPPRP	0.163
RRIRTRPPRLPRPRPRPFCQPRP	0.101
RRIRTRPPRLPRPRPRPFHAPRP	-0.0296
RRIRTRPPRLPRPRPRPFHDPRP	0.0356
RRIRTRPPRLPRPRPRPFKEPRP	-0.125
RRIRTRPPRLPRPRPRPFKIPRP	-0.0514
RRIRTRPPRLPRPRPRPFLKPRP	0.092
RRIRTRPPRLPRPRPRPFNWPRP	-0.22
RRIRTRPPRLPRPRPRPFPYPRP	-0.00797
RRIRTRPPRLPRPRPRPFRWPRP	0.24
RRIRTRPPRLPRPRPRPFTFPRP	-0.187
RRIRTRPPRLPRPRPRPFTHPRP	-0.174
RRIRTRPPRLPRPRPRPFVMPRP	-0.277
RRIRTRPPRLPRPRPRPFWKPRP	0.0184
RRIRTRPPRLPRPRPRPFWSPRP	-0.178
RRIRTRPPRLPRPRPRPFWWPRP	0.299
RRIRTRPPRLPRPRPRPFYCPRP	-0.505
RRIRTRPPRLPRPRPRPGALPRP	0.00437
RRIRTRPPRLPRPRPRPGCPPRP	0.086

Sequence	shrunken log2 fold change
RRIRTRPPRLPRPRPRPGDNPRP	-0.00277
RRIRTRPPRLPRPRPRPGESPRP	-0.012
RRIRTRPPRLPRPRPRPGFFPRP	0.147
RRIRTRPPRLPRPRPRPGGKPRP	-0.215
RRIRTRPPRLPRPRPRPGHMPRP	-0.233
RRIRTRPPRLPRPRPRPGHWPRP	0.0708
RRIRTRPPRLPRPRPRPGIGPRP	0.17
RRIRTRPPRLPRPRPRPGISPRP	0.0832
RRIRTRPPRLPRPRPRPGLQPRP	-0.138
RRIRTRPPRLPRPRPRPGMCPRP	-0.139
RRIRTRPPRLPRPRPRPGMGPRP	0.104
RRIRTRPPRLPRPRPRPGMIPRP	-0.0261
RRIRTRPPRLPRPRPRPGMKPRP	-0.0344
RRIRTRPPRLPRPRPRPGNWPRP	0.275
RRIRTRPPRLPRPRPRPGQLPRP	0.226
RRIRTRPPRLPRPRPRPGQYPRP	-0.286
RRIRTRPPRLPRPRPRPGRLPRP	0.171
RRIRTRPPRLPRPRPRPGSAPRP	0.362
RRIRTRPPRLPRPRPRPGSSPRP	-0.209
RRIRTRPPRLPRPRPRPGTRPRP	0.2
RRIRTRPPRLPRPRPRPGVCPRP	0.442
RRIRTRPPRLPRPRPRPGYFPRP	-0.0719
RRIRTRPPRLPRPRPRPGYMPRP	-0.297
RRIRTRPPRLPRPRPRPHAPPRP	-0.046
RRIRTRPPRLPRPRPRPHATPRP	-0.0102
